Experimental data from US20220023420A1 (PRECIGEN, published 2022).

B1: Anti-PD-1(VH7-VL6) IgG4-TGFβRII (other)
heavy: QVQLVQSGVEVKKPGASVKVSCKASGYTFTNYYMYWVRQAPGQGLEWMGGINPSNGGTNFNEKFKNRVTLTTDSSTTTAYMELKSLQFDDTAVYYCARRDYRFDMGFDYWGQGTTVTVSSASTKGPSVFPLAPCSRSTSESTAALGCLVKDYFPEPVTVSWNSGALTSGVHTFPAVLQSSGLYSLSSVVTVPSSSLGTKTYTCNVDHKPSNTKVDKRVESKYGPPCPSCPAPEFLGGPSVFLFPPKPKDTLMISRTPEVTCVVVDVSQEDPEVQFNWYVDGVEVHNAKTKPREEQFNSTYRVVSVLTVLHQDWLNGKEYKCKVSNKGLPSSIEKTISKAKGQPREPQVYTLPPSQEEMTKNQVSLTCLVKGFYPSDIAVEWESNGQPENNYKTTPPVLDSDGSFFLYSRLTVDKSRWQEGNVFSCSVMHEALHNHYTQKSLSLSPGKGGGGSGGGGSIPPHVQKSVNNDMIVTDNNGAVKFPQLCKFCDVRFSTCDNQKSCMSNCSITSICEKPQEVCVAVWRKNDENITLETVCHDPKLPYHDFILEDAASPKCIMKEKKKPGETFFMCSCSSDECNDNIIFSEEYNTSNPD
light: EIVLTQSPATLSLSPGERATLSCRASKGVSTSGYSYLHWYQQKPGQAPRLLIYLASYLESGVPARFSGSGSGTDFTLTISSLEPEDFAVYYCQHSRDLPLTFGGGTKVEIKRTVAAPSVFIFPPSDEQLKSGTASVVCLLNNFYPREAKVQWKVDNALQSGNSQESVTEQDSKDSTYSLSSTLTLSKADYEKHKVYACEVTHQGLSSPVTKSFNRGEC
B2: Anti-PD-1 (VL5-VH6).IgG4 (antibody, V domains shown)
VH: QVQLVESGGGVVQPGRSLRLDCKASGITFSNSGMHWVRQAPGKGLEWVAVIWYDGSKRYYADSVKGRFTISRDNSKNTLFLQMNSLRAEDTAVYYCATNDDYWGQGTLVTVSS
VL: EIVLTQSPATLSLSPGERATLSCRASQSVSSYLAWYQQKPGQAPRLLIYDASNRATGIPARFSGSGSGTDFTLTISSLEPEDFAVYYCQQSSNWPRTFGQGTKVEIK
B3: Anti-PD-1 (VL5-VH6).IgG4-Linker7 -TGFbRII (other)
heavy (part 1 of 2): QVQLVESGGGVVQPGRSLRLDCKASGITFSNSGMHWVRQAPGKGLEWVAVIWYDGSKRYYADSVKGRFTISRDNSKNTLFLQMNSLRAEDTAVYYCATNDDYWGQGTLVTVSS
heavy (part 2 of 2): DPGSGSVPLGSGSNPGSIPPHVQKSVNNDMIVTDNNGAVKFPQLCKFCDVRFSTCDNQKSCMSNCSITSICEKPQEVCVAVWRKNDENITLETVCHDPKLPYHDFILEDAASPKCIMKEKKKPGETFFMCSCSSDECNDNIIFSEEYNTSNPD
VL: EIVLTQSPATLSLSPGERATLSCRASQSVSSYLAWYQQKPGQAPRLLIYDASNRATGIPARFSGSGSGTDFTLTISSLEPEDFAVYYCQQSSNWPRTFGQGTKVEIK
B4: Anti-PD-1 (VL5-VH6).IgG4-Linker12 -TGFbRII (other)
heavy (part 1 of 2): QVQLVESGGGVVQPGRSLRLDCKASGITFSNSGMHWVRQAPGKGLEWVAVIWYDGSKRYYADSVKGRFTISRDNSKNTLFLQMNSLRAEDTAVYYCATNDDYWGQGTLVTVSS
heavy (part 2 of 2): DPVLEREDKVTTSKNPGSIPPHVQKSVNNDMIVTDNNGAVKFPQLCKFCDVRFSTCDNQKSCMSNCSITSICEKPQEVCVAVWRKNDENITLETVCHDPKLPYHDFILEDAASPKCIMKEKKKPGETFFMCSCSSDECNDNIIFSEEYNTSNPD
VL: EIVLTQSPATLSLSPGERATLSCRASQSVSSYLAWYQQKPGQAPRLLIYDASNRATGIPARFSGSGSGTDFTLTISSLEPEDFAVYYCQQSSNWPRTFGQGTKVEIK
B5: Anti-PD-1 (VL5-VH6).IgG4-Linker10 -TGFbRII (other)
heavy (part 1 of 2): QVQLVESGGGVVQPGRSLRLDCKASGITFSNSGMHWVRQAPGKGLEWVAVIWYDGSKRYYADSVKGRFTISRDNSKNTLFLQMNSLRAEDTAVYYCATNDDYWGQGTLVTVSS
heavy (part 2 of 2): DPGVLEREDVPTTSYPNPGSIPPHVQKSVNNDMIVTDNNGAVKFPQLCKFCDVRFSTCDNQKSCMSNCSITSICEKPQEVCVAVWRKNDENITLETVCHDPKLPYHDFILEDAASPKCIMKEKKKPGETFFMCSCSSDECNDNIIFSEEYNTSNPD
VL: EIVLTQSPATLSLSPGERATLSCRASQSVSSYLAWYQQKPGQAPRLLIYDASNRATGIPARFSGSGSGTDFTLTISSLEPEDFAVYYCQQSSNWPRTFGQGTKVEIK
B6: Anti-PD-1 (VL5-VH6).IgG4-Linker 2 -TGFbRII (other)
heavy (part 1 of 2): QVQLVESGGGVVQPGRSLRLDCKASGITFSNSGMHWVRQAPGKGLEWVAVIWYDGSKRYYADSVKGRFTISRDNSKNTLFLQMNSLRAEDTAVYYCATNDDYWGQGTLVTVSS
heavy (part 2 of 2): GGGGSGGGSIPPHVQKSVNNDMIVTDNNGAVKFPQLCKFCDVRFSTCDNQKSCMSNCSITSICEKPQEVCVAVWRKNDENITLETVCHDPKLPYHDFILEDAASPKCIMKEKKKPGETFFMCSCSSDECNDNIIFSEEYNTSNPD
VL: EIVLTQSPATLSLSPGERATLSCRASQSVSSYLAWYQQKPGQAPRLLIYDASNRATGIPARFSGSGSGTDFTLTISSLEPEDFAVYYCQQSSNWPRTFGQGTKVEIK
B7: Anti-PD-1 (nVL1-nVH3).IgG4-TGFbRII (other)
heavy (part 1 of 2): QVQLVESGGGVVQPGRSLRLDCKASGITFSNSGMHWVRQAPGKGLEWVAVIWYDGSKRYYADSVKGRFTISRDNSKNTLFLQMNSLRAEDTAVYYCATNNDYWGQGTLVTVSS
heavy (part 2 of 2): GGGGSGGGGSIPPHVQKSVNNDMIVTDNNGAVKFPQLCKFCDVRFSTCDNQKSCMSNCSITSICEKPQEVCVAVWRKNDENITLETVCHDPKLPYHDFILEDAASPKCIMKEKKKPGETFFMCSCSSDECNDNIIFSEEYNTSNPD
VL: EIVMTQSPATLSLSPGERATLSCRASQSVSSYLAWYQQKPGQAPRLLIYDASNRATGIPARFSGSGSGTDFTLTISSLEPEDFAVYYCQQYNNWPRTFGQGTKVEIK
B8: Anti-PD-1 (VL5-VH6).IgG4-Linker8 -TGFbRII (other)
heavy (part 1 of 2): QVQLVESGGGVVQPGRSLRLDCKASGITFSNSGMHWVRQAPGKGLEWVAVIWYDGSKRYYADSVKGRFTISRDNSKNTLFLQMNSLRAEDTAVYYCATNDDYWGQGTLVTVSS
heavy (part 2 of 2): DPGSGGSVPLGSGGSNPGSIPPHVQKSVNNDMIVTDNNGAVKFPQLCKFCDVRFSTCDNQKSCMSNCSITSICEKPQEVCVAVWRKNDENITLETVCHDPKLPYHDFILEDAASPKCIMKEKKKPGETFFMCSCSSDECNDNIIFSEEYNTSNPD
VL: EIVLTQSPATLSLSPGERATLSCRASQSVSSYLAWYQQKPGQAPRLLIYDASNRATGIPARFSGSGSGTDFTLTISSLEPEDFAVYYCQQSSNWPRTFGQGTKVEIK
B9: Anti-PD-1 (nVL1-nVH8).IgG4-TGFbRII (other)
heavy (part 1 of 2): EVQLVQSGGGVVQPGRSLRLSCAASGFTFSSYGMHWVRQAPGKGLEWVAVIWYDGSNKYYADSVKGRFTISRDNSKNTLYLQMNSLRAEDTAVYYCATNNDYWGQGTLVTVSS
heavy (part 2 of 2): GGGGSGGGGSIPPHVQKSVNNDMIVTDNNGAVKFPQLCKFCDVRFSTCDNQKSCMSNCSITSICEKPQEVCVAVWRKNDENITLETVCHDPKLPYHDFILEDAASPKCIMKEKKKPGETFFMCSCSSDECNDNIIFSEEYNTSNPD
VL: EIVMTQSPATLSLSPGERATLSCRASQSVSSYLAWYQQKPGQAPRLLIYDASNRATGIPARFSGSGSGTDFTLTISSLEPEDFAVYYCQQYNNWPRTFGQGTKVEIK
B10: Anti-PD-1 (nVL1-nVH7).IgG4-TGFbRII (other)
heavy (part 1 of 2): QVQLVESGGGVVQPGRSLRLDCKASGFTFSNSGMHWVRQAPGKGLEWVAVIWYDGSKRYYADSVKGRFTISRDNSKNTLFLQMNSLRAEDTAVYYCATNNDYWGQGTLVTVSS
heavy (part 2 of 2): GGGGSGGGGSIPPHVQKSVNNDMIVTDNNGAVKFPQLCKFCDVRFSTCDNQKSCMSNCSITSICEKPQEVCVAVWRKNDENITLETVCHDPKLPYHDFILEDAASPKCIMKEKKKPGETFFMCSCSSDECNDNIIFSEEYNTSNPD
VL: EIVMTQSPATLSLSPGERATLSCRASQSVSSYLAWYQQKPGQAPRLLIYDASNRATGIPARFSGSGSGTDFTLTISSLEPEDFAVYYCQQYNNWPRTFGQGTKVEIK
B11: Anti-PD-1 (nVL1-nVH3).IgG4(S108P) (antibody, V domains shown)
VH: QVQLVESGGGVVQPGRSLRLDCKASGITFSNSGMHWVRQAPGKGLEWVAVIWYDGSKRYYADSVKGRFTISRDNSKNTLFLQMNSLRAEDTAVYYCATNNDYWGQGTLVTVSS
VL: EIVMTQSPATLSLSPGERATLSCRASQSVSSYLAWYQQKPGQAPRLLIYDASNRATGIPARFSGSGSGTDFTLTISSLEPEDFAVYYCQQYNNWPRTFGQGTKVEIK
notes: IgG4 with S108P
B12: Anti-PD-1 (nVL1-nVH3).IgG4 (antibody, V domains shown)
VH: QVQLVESGGGVVQPGRSLRLDCKASGITFSNSGMHWVRQAPGKGLEWVAVIWYDGSKRYYADSVKGRFTISRDNSKNTLFLQMNSLRAEDTAVYYCATNNDYWGQGTLVTVSS
VL: EIVMTQSPATLSLSPGERATLSCRASQSVSSYLAWYQQKPGQAPRLLIYDASNRATGIPARFSGSGSGTDFTLTISSLEPEDFAVYYCQQYNNWPRTFGQGTKVEIK
notes: IgG4

Key:
TGF-β1 [1] = molecular target: T1, TGF-β1 (UniProt P01137 279-390); assay: cell-based or functional assay
TGF-β1 [2] = molecular target: T1, TGF-β1; assay: cell-based or functional assay; remark: listed apart in the source
PD-1 Fc fusion protein = molecular target: T2, PD-1 Fc fusion protein (UniProt Q15116 25-167, limits assumed); assay: SPR (Biacore), PD-1-Fc antigen on CM5, 1:1 Langmuir with mass transfer
T2 construct: also called PD-1-Fc antigen; PD-1 fused to human Fc region; not shown: human Fc region
Procedure: PD-1-Fc antigen and reference antigen was immobilized on Biacore CM5 surface. […] Kinetics data was evaluated for 1:1 model: Langmuir with mass transfer.

T1 sequence (P01137 279-390 limits assumed): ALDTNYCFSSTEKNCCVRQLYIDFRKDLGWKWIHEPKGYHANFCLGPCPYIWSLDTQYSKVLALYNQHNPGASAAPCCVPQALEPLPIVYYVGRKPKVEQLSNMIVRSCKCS
T2 sequence (Q15116 25-167 limits assumed): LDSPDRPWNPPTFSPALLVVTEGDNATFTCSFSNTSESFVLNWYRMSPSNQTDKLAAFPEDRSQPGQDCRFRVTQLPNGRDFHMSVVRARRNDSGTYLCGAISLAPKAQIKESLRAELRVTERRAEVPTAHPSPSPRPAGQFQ

| Binder | IC50-inhibition of TGF-β1 induced reporter gene activity (HEK-Blue TGF-β cells, SEAP) (TGF-β1 [1]) | IC50, TGF-β1 neutralization activity (HEK-Blue TGF-β reporter cells) (TGF-β1 [2]) | further results |
| --- | --- | --- | --- |
| B1 | 5.6 pM |  |  |
| B2 | 9 pM |  |  |
| B3 |  | 1.1 pM |  |
| B4 |  | 2.7 pM |  |
| B5 |  | 1.9 pM |  |
| B6 |  | 1.2 pM |  |
| B7 | 10.7 pM |  |  |
| B8 |  | 1.2 pM |  |
| B9 | 54.5 pM |  |  |
| B10 | 15.1 pM |  |  |
| B11 |  |  | Kd (PD-1 Fc fusion protein): 14.1 pM |
| B12 |  |  | Kd (PD-1 Fc fusion protein): 14.8 pM |
